Reference: US20240076386A1 (Pfizer, published 2024)

Tests used:
[1] = molecular target: T1, recombinant histidine-tagged human E-selectin (Sino Biologicals; 13025-H08H) (human, UniProt P16581 22-556); experiment: competition ELISA, His-tagged E-selectin on Ni-NTA plate vs HRP-conjugated sialyl Lewis A
T1 construct: also called recombinant human E-selectin; soluble recombinant human E-selectin
T1 sequence (looked up): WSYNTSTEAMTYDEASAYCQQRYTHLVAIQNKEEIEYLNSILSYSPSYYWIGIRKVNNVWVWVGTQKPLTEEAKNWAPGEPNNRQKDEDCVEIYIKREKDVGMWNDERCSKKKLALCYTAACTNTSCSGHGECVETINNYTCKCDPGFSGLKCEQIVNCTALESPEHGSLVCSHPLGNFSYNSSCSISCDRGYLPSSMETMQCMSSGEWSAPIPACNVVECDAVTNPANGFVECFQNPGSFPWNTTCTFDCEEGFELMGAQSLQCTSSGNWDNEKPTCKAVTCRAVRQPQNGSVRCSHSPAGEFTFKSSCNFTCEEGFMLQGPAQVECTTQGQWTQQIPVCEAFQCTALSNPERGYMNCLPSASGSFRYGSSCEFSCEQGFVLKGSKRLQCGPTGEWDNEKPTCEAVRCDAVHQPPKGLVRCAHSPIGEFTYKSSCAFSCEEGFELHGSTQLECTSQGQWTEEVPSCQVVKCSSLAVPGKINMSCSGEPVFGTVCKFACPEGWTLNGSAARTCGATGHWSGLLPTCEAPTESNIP
Method: (§1) Recombinant histidine-tagged E-selectin; cynomolgus monkey E-selectin (Sino Biologicals; 190169-C08H) and human E-selectin (Sino Biologicals; 13025-H08H) stock solutions were prepared to a final concentration of 3 μg/mL in phosphate buffered saline (PBS) without calcium and magnesium. One hundred μL per well of the diluted recombinant E-selectin protein was added into a Ni-NTA HisSorb 96 well plate (Qiagen, 35061) and plates were incubated on an orbital shaker at room temperature for 2 hours. Sialyl Lewis A polyacrylamide biotin, a synthetic E-selectin ligand (GlycoTech corporation 01-044), was conjugated to streptavidin HRP (horse radish peroxidase) (Ultra Streptavidin HRP, Thermo Scientific N504) and diluted in assay diluent containing 2 mM calcium chloride (BD OptEIA buffer; BD Biosciences, 555213).
(§2) Following the incubation, the plates were washed 5 times with 200 μL of wash buffer containing 2 mM of calcium chloride (50 mM TRIS [trisaminomethane]; 150 mM sodium chloride, 0.05% polysorbate 20, pH 7.4; 2 mM of calcium chloride). […] The final antibody concentration ranged from 200 nM to 0.09 nM and the final concentration of HRP conjugated Sialyl Lewis A was 5 μg/mL. Plates were washed as mentioned before, and 100 μL per well of 1-Step Ultra TMB substrate (Thermo Scientific, 34028) was added and incubated for 5 minutes at room temperature. Reactions were stopped with 100 μl of 2M sulfuric acid and absorbance read at 450 nm (Spectramax M5e). Data were analyzed and graphed using GraphPad Prism software (Version 8.0.2).

[2] = molecular target: T2, recombinant histidine-tagged cynomolgus monkey E-selectin (Sino Biologicals; 190169-C08H) (cynomolgus monkey, UniProt A0A2K5U7H9 22-554); experiment: as above
T2 construct: also called recombinant cynomolgus monkey E-selectin
T2 sequence: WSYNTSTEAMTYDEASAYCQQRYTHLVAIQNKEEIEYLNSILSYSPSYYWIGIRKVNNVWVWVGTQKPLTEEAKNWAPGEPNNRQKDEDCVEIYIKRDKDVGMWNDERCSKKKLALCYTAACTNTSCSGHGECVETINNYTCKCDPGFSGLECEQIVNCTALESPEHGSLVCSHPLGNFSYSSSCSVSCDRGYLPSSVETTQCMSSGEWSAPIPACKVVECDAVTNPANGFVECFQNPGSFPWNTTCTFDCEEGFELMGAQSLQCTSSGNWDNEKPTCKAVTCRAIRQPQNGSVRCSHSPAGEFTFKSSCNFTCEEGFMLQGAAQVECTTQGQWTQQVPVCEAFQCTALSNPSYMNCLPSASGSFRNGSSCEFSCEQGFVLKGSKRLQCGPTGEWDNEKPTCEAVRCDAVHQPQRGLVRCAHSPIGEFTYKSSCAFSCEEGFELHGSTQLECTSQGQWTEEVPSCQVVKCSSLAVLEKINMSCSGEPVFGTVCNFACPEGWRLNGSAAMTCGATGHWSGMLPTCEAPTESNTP
Method: as §1, §2

| Binder | IC50 [1] | IC50 [2] |
| --- | --- | --- |
| anti-E-selectin antibody 0164 chimera (antibody, human IgG1, kappa, V domains shown, rat VH/VL on effector-null human IgG1 and human kappa) VH: EVQLQQSGAEFGKPGTSVKLSCKVSGYNIRSSYMHWVNQRPGKGLEWIGRIDPANGNTIYAEKFKIKAILTADSSSNTAYMQLSQLKSDDTAIYFCAMDLYSTSEYWGQGVMVTVSS VL: DIQMTQSPSFLSASVGDRVTINCKTSQNINRYLNWYQQKLGEAPKLLIYNANSLQTGIPSRFSASGSGTDFTLTINSLQPEDVATYFCLQDNSWPLTFGSGTKLEIKR | 3.39 nM | 3.29 nM |
| optimized anti-E-selectin antibody 1282 (antibody, human IgG1, kappa, V domains shown, effector-null human IgG1, kappa) VH: EVQLVESGGGLVQPGGSLRLSCAASGYAIRSAYMHWVRQAPGKGLEWVARIDPANGNTIYVDSVEGRFTISADNAKNSAYLQMNSLRAEDTAVYYCAMDLYSTSEYWGQGTLVTVSS VL: DIQMTQSPSSLSASVGDRVTITCKTSQNIERYLNWYQQKPGKAPKLLIYAASSLQSGVPSRFSGSGSGTDFTLTISSLQPEDFATYFCLQDNAWPLTFGQGTKVEIKR | 3.39 nM | 3.23 nM |
| optimized anti-E-selectin antibody 1284 (antibody, human IgG1, kappa, V domains shown, effector-null human IgG1, kappa) VH: EVQLVESGGGLVQPGGSLRLSCAASGYAIRSAYMHWVRQAPGKGLEWVARIDPANGNTIYVESVEGRFTISADNAKNSAYLQMNSLRAEDTAVYYCAMDLYSTSEYWGQGTLVTVSS VL: DIQMTQSPSSLSASVGDRVTITCKTSQNIERYLNWYQQKPGKAPKLLIYAASSLQSGVPSRFSGSGSGTDFTLTISSLQPEDFATYFCLQDNAWPLTFGQGTKVEIKR | 3.59 nM | 3.39 nM |
| optimized anti-E-selectin antibody 1444 (antibody, human IgG1, kappa, V domains shown, effector-null human IgG1, kappa) VH: EVQLVESGGGLVQPGGSLRLSCAASGYAIRSAYMHWVRQAPGKGLEWVARIDPANGNTIYVDSVTGRFTISADNAKNSAYLQMNSLRAEDTAVYYCAMDLYSTSEYWGQGTLVTVSS VL: DIQMTQSPSSLSASVGDRVTITCKTSQNIERYLNWYQQKPGKAPKLLIYAASSLQSGVPSRFSGSGSGTDFTLTISSLQPEDFATYFCLQDNAWPLTFGQGTKVEIKR | 3.01 nM | 2.91 nM |
| optimized anti-E-selectin antibody 1448 (antibody, human IgG1, kappa, V domains shown, effector-null human IgG1, kappa) VH: EVQLVESGGGLVQPGGSLRLSCAASGYAIRSAYMHWVRQAPGKGLEWVARIDPANGNTIYVDSVKERFTISADNAKNSAYLQMNSLRAEDTAVYYCAMDLYSTSEYWGQGTLVTVSS VL: DIQMTQSPSSLSASVGDRVTITCKTSQNIERYLNWYQQKPGKAPKLLIYAASSLQSGVPSRFSGSGSGTDFTLTISSLQPEDFATYFCLQDNAWPLTFGQGTKVEIKR | 2.96 nM | 2.74 nM |
